T1: P37 (Trypanosoma brucei, UniProt O15759 1-279)
T1 sequence: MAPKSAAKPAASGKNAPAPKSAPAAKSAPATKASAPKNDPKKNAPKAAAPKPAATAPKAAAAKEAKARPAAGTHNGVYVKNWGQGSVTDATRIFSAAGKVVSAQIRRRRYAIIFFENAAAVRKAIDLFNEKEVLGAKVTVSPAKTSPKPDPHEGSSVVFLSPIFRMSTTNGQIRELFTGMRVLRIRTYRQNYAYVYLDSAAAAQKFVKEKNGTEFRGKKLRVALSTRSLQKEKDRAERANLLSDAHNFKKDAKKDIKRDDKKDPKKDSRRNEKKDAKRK

T2: P34 (Trypanosoma brucei, UniProt O15758 1-262)
T2 sequence: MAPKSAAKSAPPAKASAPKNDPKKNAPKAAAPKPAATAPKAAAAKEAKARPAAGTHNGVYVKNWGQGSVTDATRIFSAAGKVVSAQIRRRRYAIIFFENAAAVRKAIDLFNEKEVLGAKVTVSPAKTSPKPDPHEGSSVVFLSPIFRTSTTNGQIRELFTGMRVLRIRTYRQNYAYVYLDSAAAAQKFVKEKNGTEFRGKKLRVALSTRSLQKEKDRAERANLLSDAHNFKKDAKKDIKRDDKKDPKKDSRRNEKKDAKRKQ


Experiments:
P37 [1] = target: T1, P37; assay: competition; competes 5S rRNA at 100-1000 ng, somewhat better than for P34; Filter binding: 10 mM Tris pH 7.4, 1 mM EDTA, 100 mM NaCl, 0.1% NP-40, 100 ug/mL BSA, RT 20 min; EMSA/competition/RNase H protection: 10 mM Tris-HCl pH 7.4, 150 mM KCl, 0.1 mM DTT, 0.1 mM EDTA, 0.1% NP-40, RT 20 min; details: protein: recombinant; tags: His (pQE-1); hairpin
P34 [2] = target: T2, P34; assay: competition; competes 5S rRNA at 100-1000 ng; Filter binding: 10 mM Tris pH 7.4, 1 mM EDTA, 100 mM NaCl, 0.1% NP-40, 100 ug/mL BSA, RT 20 min; EMSA/competition/RNase H protection: 10 mM Tris-HCl pH 7.4, 150 mM KCl, 0.1 mM DTT, 0.1 mM EDTA, 0.1% NP-40, RT 20 min; details: protein: recombinant; tags: His (pQE-1); hairpin
P37 [3] = target: T1, P37; assay: filter binding; similar to wild type, data not shown; Filter binding: 10 mM Tris pH 7.4, 1 mM EDTA, 100 mM NaCl, 0.1% NP-40, 100 ug/mL BSA, RT 20 min; EMSA/competition/RNase H protection: 10 mM Tris-HCl pH 7.4, 150 mM KCl, 0.1 mM DTT, 0.1 mM EDTA, 0.1% NP-40, RT 20 min; details: protein: recombinant; tags: His (pQE-1); label: 32P-UTP (body)
P34 [4] = target: T2, P34; assay: filter binding; no significant difference from wild type (one text sentence says P37; legend and assay say P34); Filter binding: 10 mM Tris pH 7.4, 1 mM EDTA, 100 mM NaCl, 0.1% NP-40, 100 ug/mL BSA, RT 20 min; EMSA/competition/RNase H protection: 10 mM Tris-HCl pH 7.4, 150 mM KCl, 0.1 mM DTT, 0.1 mM EDTA, 0.1% NP-40, RT 20 min; details: protein: recombinant; tags: His (pQE-1); label: 32P-UTP (body)

Binder | binding result (P37 [1]) | binding result (P34 [2]) | binding result (P37 [3]) | binding result (P34 [4])
GCGGGGUGCCAUACUUACAGGCCUCGC (structured_RNA) [LoopA/StemV] | binds | binds | – | –
5S rRNA deltaU (U43A) (structured_RNA) RNA: GGGUACGACCAUACUUGGCCGAAUGCACCAUAUCCCGUCCGAAUUGUGAAGUUAAGCGGCCACAGGCCUCGUUAGUACGGCGAUCAGUGAUGGCGCUGGAACCCGGGGUGUUGUACUCU | – | – | binds | binds

Source: publication PMC3257258, “Characterization of a Novel Association between Two Trypanosome-Specific Proteins and 5S rRNA”
